Measurements reported in US20210061859A1, “NTCP Inhibitor” (The University of Tokyo, priority 2018, published 2021).
Where a SMILES comes first, the peptide text is derived from it. Bridges are numbered along the chain shown (N, C = ends). [ ]: non-standard residue; d: D form. NMeS = CN[C@@H](CO)C(=O)O; NMeA = CN[C@@H](C)C(=O)O; Sar = CNCC(=O)O

Target: T1, His-tagged recombinant NTCP protein (human sodium taurocholate cotransporting polypeptide) (human), Q14973
T1 chain: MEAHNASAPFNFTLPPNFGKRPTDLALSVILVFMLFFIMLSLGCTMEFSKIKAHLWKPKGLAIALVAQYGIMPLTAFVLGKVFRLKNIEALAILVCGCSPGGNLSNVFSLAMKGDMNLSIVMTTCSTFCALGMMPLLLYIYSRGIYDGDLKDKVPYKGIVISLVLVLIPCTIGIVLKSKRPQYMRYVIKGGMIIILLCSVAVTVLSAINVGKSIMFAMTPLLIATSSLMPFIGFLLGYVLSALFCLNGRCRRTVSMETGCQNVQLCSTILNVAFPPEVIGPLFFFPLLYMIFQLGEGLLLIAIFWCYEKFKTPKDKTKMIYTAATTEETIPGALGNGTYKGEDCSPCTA
Experiment: SPR (Biacore T200), single-cycle kinetics, His-NTCP on Ni2+-NTA chip, peptide as analyte, 1:1 model
Settings: not given

Molecule | Kd
YTWTWHSAYLYVFCT (modifications not checked) [WL3] | 57 nM
YWWAINPHIHVFTWPCG (modifications not checked) [NTCP-D2] | 14 nM
YTWTWNSAFLYVYCT (modifications not checked) [WL6] | 36 nM
YTWTWQNSFIWIYCT (modifications not checked) [WL5] | 10 nM
YTWIWGGLYVVYFPCT (modifications not checked) [WD2] | 14 nM
YTYKYSGIWIWIWCT (modifications not checked) [WL1] | 360 nM
YILVYPELHLFLLYSCG (modifications not checked) [NTCP-D4] | 2270 nM
YLWIFHQNWYTFDLGCG (modifications not checked) [NTCP-L3] | 13 nM
YTWNTHHYYIWLNCG (modifications not checked) [NTCP-L5] | 4 nM
YVWLLWAERSWFLDLGCG (modifications not checked) [NTCP-L2] | 374 nM
YLYLWTWPNTSYAYNVCG (modifications not checked) [NTCP-L4] | 30 nM
YNYIYYPSIHIFYLCT (modifications not checked) [PD1] | 149 nM
YLYTWTWHSNWTVTSLCG (modifications not checked) [NTCP-L1] | 21 nM
YALIWTWSQYYQYYSCT (modifications not checked) [WD3] | 15 nM
YHYWYPEWNTALYIWPCG (modifications not checked) [NTCP-D3] | 50 nM
YTFTYAQIWIWYYGCT (modifications not checked) [WD4] | 11 nM

Target: T2, human NTCP (Homo sapiens, UniProt Q14973)
T2 construct: made in house; host or cells: wheat germ cell-free protein synthesis system
T2 sequence (Q14973 1-349): T1 chain
Experiment: Surface plasmon resonance binding to immobilized recombinant NTCP
Settings: Kd, single-cycle kinetics, 1:1 binding model, NTCP immobilized on NTA-Ni2+
Experimental: (§1) FIG. 7 is a diagram showing the NTCP association constant of a peptide identified by first RaPID screening. A single-cycle reaction kinetics experiment was conducted using NTCP immobilized on surface (NTA-Ni^2+) involving varying concentrations of a cyclic peptide analyte. In each case, as shown in the drawing, the peptide was tested with 4-fold serial dilutions starting from the highest concentration of 200 or 1000 nM. A dissociation constant (KD) was determined using a 1:1 binding model.
as §1, with “9” for “7”, “focused library” for “first”, “association constant” for “reaction kinetics”
The association constant of each peptide for human NTCP was measured using a Biacore T200 apparatus (GE Healthcare Japan Corp.). The running buffer solution used was HBS-P+ (10 mM HEPES, 150 mM NaCl, and 0.05 vol % surfactant P20, pH 7.4) containing 0.1 vol % DMSO and 1 mM β-dodecyl-maltoside. 100 nM recombinant NTCP was immobilized on a NTA chip treated with Ni^2+ according to the manufacturer's instructions (baseline response: 1000 to 3000 refraction units). Peptides were injected as analytes at a flow rate of 60 μL/min, and association constants were modelled using a 1:1 binding model.

Molecule | Kd
CC(C)C[C@@H]1NC(=O)[C@H](Cc2ccc(O)cc2)NC(=O)CSC[C@@H](C(=O)NCC(N)=O)NC(=O)[C@H](CC(C)C)NC(=O)[C@H](CO)NC(=O)[C@H]([C@@H](C)O)NC(=O)[C@H](C(C)C)NC(=O)[C@H]([C@@H](C)O)NC(=O)[C@H](Cc2c[nH]c3ccccc23)NC(=O)[C@H](CC(N)=O)NC(=O)[C@H](CO)NC(=O)[C@H](Cc2c[nH]cn2)NC(=O)[C@H](Cc2c[nH]c3ccccc23)NC(=O)[C@H]([C@@H](C)O)NC(=O)[C@H](Cc2c[nH]c3ccccc23)NC(=O)[C@H]([C@@H](C)O)NC(=O)[C@H](Cc2ccc(O)cc2)NC1=O [L1] ({CH2CO}-YLYTWTWHSNWTVTSLCG-NH2; thioether N-17) | 21 nM
CC[C@H](C)[C@@H]1NC(=O)[C@H](Cc2c[nH]cn2)NC(=O)[C@H]([C@@H](C)CC)NC(=O)[C@H](CO)N(C)C(=O)[C@@H]2CCCN2C(=O)[C@H](Cc2ccc(O)cc2)NC(=O)[C@H](Cc2ccc(O)cc2)NC(=O)[C@H]([C@@H](C)CC)NC(=O)[C@H](Cc2ccc(O)cc2)NC(=O)[C@H](CC(N)=O)NC(=O)[C@@H](Cc2ccc(O)cc2)NC(=O)CSC[C@@H](C(=O)N[C@H](C(N)=O)[C@@H](C)O)NC(=O)[C@H](CC(C)C)NC(=O)[C@H](Cc2ccc(O)cc2)NC(=O)[C@H](Cc2ccccc2)NC1=O [PD1] ({CH2CO}-[dY]NYIYYP[NMeS]IHIFYLCT-NH2; thioether N-15) | 149 nM
CC[C@H](C)[C@@H]1NC(=O)CN(C)C(=O)[C@H](CO)NC(=O)[C@H](Cc2ccc(O)cc2)NC(=O)[C@H](CCCCN)NC(=O)[C@H](Cc2ccc(O)cc2)NC(=O)[C@H]([C@@H](C)O)NC(=O)[C@H](Cc2ccc(O)cc2)NC(=O)CSC[C@@H](C(=O)N[C@H](C(N)=O)[C@@H](C)O)NC(=O)[C@H](Cc2c[nH]c3ccccc23)NC(=O)[C@H]([C@@H](C)CC)NC(=O)[C@H](Cc2c[nH]c3ccccc23)NC(=O)[C@H]([C@@H](C)CC)NC(=O)[C@H](Cc2c[nH]c3ccccc23)NC1=O [WL1] ({CH2CO}-YTYKYS[Sar]IWIWIWCT-NH2; thioether N-14) | 360 nM
CC[C@H](C)[C@@H]1NC(=O)[C@H](Cc2ccc(O)cc2)NC(=O)[C@H](Cc2ccc(O)cc2)NC(=O)[C@H](Cc2c[nH]cn2)NC(=O)[C@H](Cc2c[nH]cn2)NC(=O)[C@H]([C@@H](C)O)NC(=O)[C@H](CC(N)=O)NC(=O)[C@H](Cc2c[nH]c3ccccc23)NC(=O)[C@H]([C@@H](C)O)NC(=O)[C@H](Cc2ccc(O)cc2)NC(=O)CSC[C@@H](C(=O)NCC(N)=O)NC(=O)[C@H](CC(N)=O)NC(=O)[C@H](CC(C)C)NC(=O)[C@H](Cc2c[nH]c3ccccc23)NC1=O [L5] ({CH2CO}-YTWNTHHYYIWLNCG-NH2; thioether N-14) | 4 nM
CC[C@H](C)[C@@H]1NC(=O)[C@H](Cc2ccc(O)cc2)NC(=O)[C@H](CC(C)C)NC(=O)[C@H](C)NC(=O)[C@H]([C@@H](C)O)NC(=O)[C@H](CC(N)=O)NC(=O)[C@H](Cc2c[nH]c3ccccc23)NC(=O)[C@H](CCC(=O)O)NC(=O)[C@@H]2CCCN2C(=O)[C@H](Cc2ccc(O)cc2)NC(=O)[C@H](Cc2c[nH]c3ccccc23)NC(=O)[C@H](Cc2ccc(O)cc2)NC(=O)[C@H](Cc2c[nH]cn2)NC(=O)[C@@H](Cc2ccc(O)cc2)NC(=O)CSC[C@@H](C(=O)NCC(N)=O)NC(=O)[C@@H]2CCCN2C(=O)[C@H](Cc2c[nH]c3ccccc23)NC1=O [D3] ({CH2CO}-[dY]HYWYPEWNTALYIWPCG-NH2; thioether N-17) | 50 nM
CC[C@H](C)[C@@H]1NC(=O)[C@H](Cc2c[nH]c3ccccc23)NC(=O)[C@H]([C@@H](C)CC)NC(=O)[C@H](Cc2ccccc2)NC(=O)[C@H](CO)NC(=O)[C@H](CC(N)=O)NC(=O)[C@H](CCC(N)=O)NC(=O)[C@H](Cc2c[nH]c3ccccc23)NC(=O)[C@H]([C@@H](C)O)NC(=O)[C@H](Cc2c[nH]c3ccccc23)NC(=O)[C@H]([C@@H](C)O)NC(=O)[C@H](Cc2ccc(O)cc2)NC(=O)CSC[C@@H](C(=O)N[C@H](C(N)=O)[C@@H](C)O)NC(=O)[C@H](Cc2ccc(O)cc2)NC1=O [WL5] ({CH2CO}-YTWTWQNSFIWIYCT-NH2; thioether N-14) | 10 nM
CC[C@H](C)[C@@H]1NC(=O)[C@H](Cc2c[nH]c3ccccc23)NC(=O)[C@H]([C@@H](C)O)NC(=O)[C@@H](Cc2ccc(O)cc2)NC(=O)CSC[C@@H](C(=O)N[C@H](C(N)=O)[C@@H](C)O)NC(=O)[C@@H]2CCCN2C(=O)[C@H](Cc2ccccc2)NC(=O)[C@H](Cc2ccc(O)cc2)NC(=O)[C@H](C(C)C)NC(=O)[C@H](C(C)C)NC(=O)[C@H](Cc2ccc(O)cc2)NC(=O)[C@H](CC(C)C)NC(=O)CN(C)C(=O)CN(C)C(=O)[C@H](Cc2c[nH]c3ccccc23)NC1=O [WD2] ({CH2CO}-[dY]TWIW[Sar][Sar]LYVVYFPCT-NH2; thioether N-15) | 14 nM
CC(C)C[C@@H]1NC(=O)[C@H](Cc2ccc(O)cc2)NC(=O)CSC[C@@H](C(=O)NCC(N)=O)NC(=O)[C@H](C(C)C)NC(=O)[C@H](CC(N)=O)NC(=O)[C@H](Cc2ccc(O)cc2)NC(=O)[C@H](C)NC(=O)[C@H](Cc2ccc(O)cc2)NC(=O)[C@H](CO)NC(=O)[C@H]([C@@H](C)O)NC(=O)[C@H](CC(N)=O)NC(=O)[C@@H]2CCCN2C(=O)[C@H](Cc2c[nH]c3ccccc23)NC(=O)[C@H]([C@@H](C)O)NC(=O)[C@H](Cc2c[nH]c3ccccc23)NC(=O)[C@H](CC(C)C)NC(=O)[C@H](Cc2ccc(O)cc2)NC1=O [L4] ({CH2CO}-YLYLWTWPNTSYAYNVCG-NH2; thioether N-17) | 30 nM
CC[C@H](C)[C@@H]1NC(=O)[C@H](Cc2c[nH]c3ccccc23)NC(=O)[C@H]([C@@H](C)CC)NC(=O)[C@H](CCC(N)=O)NC(=O)[C@H](C)N(C)C(=O)[C@H](Cc2ccc(O)cc2)NC(=O)[C@H]([C@@H](C)O)NC(=O)[C@H](Cc2ccccc2)NC(=O)[C@H]([C@@H](C)O)NC(=O)[C@@H](Cc2ccc(O)cc2)NC(=O)CSC[C@@H](C(=O)N[C@H](C(N)=O)[C@@H](C)O)NC(=O)CN(C)C(=O)[C@H](Cc2ccc(O)cc2)NC(=O)[C@H](Cc2ccc(O)cc2)NC(=O)[C@H](Cc2c[nH]c3ccccc23)NC1=O [WD4] ({CH2CO}-[dY]TFTY[NMeA]QIWIWYY[Sar]CT-NH2; thioether N-15) | 11 nM
